Common to all, as to assay: Kinase selectivity panel
What all share (assay type): biochemical

One data set concerns the target SAPK2b/p38β2 (Homo sapiens, UniProt Q15759). Conditions: inhibitor 1 μM; ATP 20 μM; read-out: residual activity (%) SAPK2b/p38β2. Here is the method: (§1) The panel of kinases included all 52 kinases available for testing. To the best of our knowledge, the selectivity profiling has not been carried out with a wide panel of PK before for bisubstrate-type inhibitors.
(§2) The assay of protein kinases was performed at 30° C. as described previously [Davies et al., Biochem. J. 351 (2000) 95; Murray et al., Biochem. J. 384 (2004) 477]. The results of the testing are expressed as the % of residual activity of the kinase in the presence of the inhibitor at 1 micromolar concentration.

A further data set has as its target CDK2/cyclin A (Homo sapiens, UniProt P24941). To be noted: inhibitor 1 μM; ATP 20 μM; read-out: residual activity (%) CDK2/cyclin A. Here is the method:
as §1, §2

The target in the next data set is JNK/SAPK1c (Homo sapiens, UniProt P45983). To be noted: inhibitor 1 μM; ATP 20 μM; read-out: residual activity (%) JNK/SAPK1c. Here is the method:
as §1, §2

The next data set addresses SAPK2a/p38 (Homo sapiens, UniProt Q16539). Conditions: inhibitor 1 μM; ATP 50 μM; read-out: residual activity (%) SAPK2a/p38. Here is the method:
as §1, §2

Another data set addresses T1, SAPK4/p38d (Homo sapiens, UniProt O15264).
T1 sequence (O15264 1-365): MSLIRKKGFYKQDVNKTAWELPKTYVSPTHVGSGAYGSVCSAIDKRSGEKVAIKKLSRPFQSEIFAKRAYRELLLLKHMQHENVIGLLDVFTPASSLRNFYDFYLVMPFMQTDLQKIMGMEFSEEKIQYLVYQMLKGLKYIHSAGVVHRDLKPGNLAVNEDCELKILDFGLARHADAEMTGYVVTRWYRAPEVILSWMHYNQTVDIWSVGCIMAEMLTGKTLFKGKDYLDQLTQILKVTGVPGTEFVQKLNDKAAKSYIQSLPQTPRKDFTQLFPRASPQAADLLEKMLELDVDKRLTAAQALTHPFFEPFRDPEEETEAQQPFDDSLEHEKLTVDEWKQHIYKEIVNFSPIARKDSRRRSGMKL
To be noted: inhibitor 1 μM; ATP 5 μM; read-out: residual activity (%) SAPK4/p38d. Here is the method: as §1, §2

A further data set addresses T2, SAPK3/p38g (Homo sapiens, UniProt P53778).
T2 sequence (P53778 1-367): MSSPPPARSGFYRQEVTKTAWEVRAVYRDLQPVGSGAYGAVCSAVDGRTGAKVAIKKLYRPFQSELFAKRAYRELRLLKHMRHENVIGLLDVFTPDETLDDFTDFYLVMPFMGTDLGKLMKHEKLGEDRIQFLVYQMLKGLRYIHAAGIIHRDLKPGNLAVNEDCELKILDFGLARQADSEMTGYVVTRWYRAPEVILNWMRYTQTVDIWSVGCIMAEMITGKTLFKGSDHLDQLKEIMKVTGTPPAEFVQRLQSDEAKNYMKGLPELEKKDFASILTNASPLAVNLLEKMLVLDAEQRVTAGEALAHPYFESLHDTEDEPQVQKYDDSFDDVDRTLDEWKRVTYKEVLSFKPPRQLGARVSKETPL
Conditions: inhibitor 1 μM; ATP 5 μM; read-out: residual activity (%) SAPK3/p38g. Here is the method: as §1, §2

The target of the next data set is MAPK2/ERK2 (Homo sapiens, UniProt P28482). To be noted: inhibitor 1 μM; ATP 50 μM; read-out: residual activity (%) MAPK2/ERK2. Here is the method: as §1, §2
Sequence of MAPK2/ERK2 (P28482 whole entry): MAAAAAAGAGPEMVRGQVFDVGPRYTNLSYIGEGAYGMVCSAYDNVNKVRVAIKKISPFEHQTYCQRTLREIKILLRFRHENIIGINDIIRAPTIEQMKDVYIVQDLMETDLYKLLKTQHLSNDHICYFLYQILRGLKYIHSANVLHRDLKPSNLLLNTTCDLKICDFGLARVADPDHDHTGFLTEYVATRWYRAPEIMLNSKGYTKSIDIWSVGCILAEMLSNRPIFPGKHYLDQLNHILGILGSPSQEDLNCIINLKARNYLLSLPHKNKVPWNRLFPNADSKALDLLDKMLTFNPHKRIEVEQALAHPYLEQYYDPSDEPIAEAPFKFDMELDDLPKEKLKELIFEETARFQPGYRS
Another data set addresses T3, NEK2a (Homo sapiens, UniProt P51955).
T3 sequence (P51955 1-445): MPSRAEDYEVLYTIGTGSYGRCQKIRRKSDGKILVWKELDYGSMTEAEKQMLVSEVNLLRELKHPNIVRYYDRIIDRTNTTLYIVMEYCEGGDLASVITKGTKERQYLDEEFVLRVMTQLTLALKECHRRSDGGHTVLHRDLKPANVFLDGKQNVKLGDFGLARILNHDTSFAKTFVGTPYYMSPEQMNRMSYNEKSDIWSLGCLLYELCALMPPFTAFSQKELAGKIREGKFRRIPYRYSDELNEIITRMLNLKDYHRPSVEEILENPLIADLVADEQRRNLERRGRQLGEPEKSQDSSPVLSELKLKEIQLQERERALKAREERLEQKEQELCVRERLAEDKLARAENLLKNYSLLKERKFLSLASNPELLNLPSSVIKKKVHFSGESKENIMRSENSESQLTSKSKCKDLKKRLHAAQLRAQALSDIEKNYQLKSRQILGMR
Conditions: read-out: residual activity (%) NEK2a. An outline of the steps: (§3)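 Each kinase was tested as one member of a 52-kinase selectivity panel. Kinase reactions were run at 30° C.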

The target in a further data set is T4, eEF2K (Homo sapiens, UniProt O00418).
T4 sequence (O00418 1-725): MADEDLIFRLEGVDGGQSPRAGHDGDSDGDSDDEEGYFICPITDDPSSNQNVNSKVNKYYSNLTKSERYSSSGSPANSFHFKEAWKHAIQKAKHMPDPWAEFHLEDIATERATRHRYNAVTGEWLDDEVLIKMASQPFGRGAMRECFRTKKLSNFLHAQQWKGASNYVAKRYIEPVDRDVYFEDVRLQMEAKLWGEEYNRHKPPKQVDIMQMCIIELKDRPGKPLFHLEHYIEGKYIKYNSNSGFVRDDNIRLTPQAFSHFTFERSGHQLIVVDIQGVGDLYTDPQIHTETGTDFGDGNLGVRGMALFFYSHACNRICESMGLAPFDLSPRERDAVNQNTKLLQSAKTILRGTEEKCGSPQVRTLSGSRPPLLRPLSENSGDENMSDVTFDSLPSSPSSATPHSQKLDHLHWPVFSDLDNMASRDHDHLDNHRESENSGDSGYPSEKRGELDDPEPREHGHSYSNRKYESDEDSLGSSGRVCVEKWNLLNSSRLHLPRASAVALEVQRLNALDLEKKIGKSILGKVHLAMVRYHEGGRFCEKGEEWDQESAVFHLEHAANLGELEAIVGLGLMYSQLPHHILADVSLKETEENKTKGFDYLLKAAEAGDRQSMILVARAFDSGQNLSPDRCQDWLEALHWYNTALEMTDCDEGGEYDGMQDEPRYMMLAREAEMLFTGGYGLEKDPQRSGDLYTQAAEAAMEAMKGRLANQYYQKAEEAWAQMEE
To be noted: read-out: residual activity (%) eEF2K. An outline of the steps:
as §3

Read-outs that look alike come from different tables or passages of the source.

Sequence of SAPK2a/p38 (Q16539 whole entry): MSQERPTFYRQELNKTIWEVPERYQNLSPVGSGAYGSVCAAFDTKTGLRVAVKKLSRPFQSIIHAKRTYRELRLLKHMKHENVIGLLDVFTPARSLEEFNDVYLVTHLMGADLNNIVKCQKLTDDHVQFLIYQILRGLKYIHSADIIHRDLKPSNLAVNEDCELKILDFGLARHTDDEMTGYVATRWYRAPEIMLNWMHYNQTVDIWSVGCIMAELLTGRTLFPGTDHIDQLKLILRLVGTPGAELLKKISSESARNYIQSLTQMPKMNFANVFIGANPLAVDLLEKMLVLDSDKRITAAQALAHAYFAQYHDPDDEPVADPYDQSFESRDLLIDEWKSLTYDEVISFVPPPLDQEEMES
Sequence of JNK/SAPK1c (P45983 whole entry): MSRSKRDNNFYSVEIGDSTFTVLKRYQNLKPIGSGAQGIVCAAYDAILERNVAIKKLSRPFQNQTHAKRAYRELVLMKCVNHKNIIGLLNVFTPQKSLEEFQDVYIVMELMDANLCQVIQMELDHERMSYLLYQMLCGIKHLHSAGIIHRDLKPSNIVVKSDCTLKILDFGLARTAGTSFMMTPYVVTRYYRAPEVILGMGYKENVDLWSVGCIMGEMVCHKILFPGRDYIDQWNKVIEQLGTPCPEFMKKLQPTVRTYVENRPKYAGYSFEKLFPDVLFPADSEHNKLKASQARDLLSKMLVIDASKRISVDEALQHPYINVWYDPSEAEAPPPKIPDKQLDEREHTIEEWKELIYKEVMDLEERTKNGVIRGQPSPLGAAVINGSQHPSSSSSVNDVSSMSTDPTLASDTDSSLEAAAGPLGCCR
Sequence of SAPK2b/p38β2 (Q15759 whole entry): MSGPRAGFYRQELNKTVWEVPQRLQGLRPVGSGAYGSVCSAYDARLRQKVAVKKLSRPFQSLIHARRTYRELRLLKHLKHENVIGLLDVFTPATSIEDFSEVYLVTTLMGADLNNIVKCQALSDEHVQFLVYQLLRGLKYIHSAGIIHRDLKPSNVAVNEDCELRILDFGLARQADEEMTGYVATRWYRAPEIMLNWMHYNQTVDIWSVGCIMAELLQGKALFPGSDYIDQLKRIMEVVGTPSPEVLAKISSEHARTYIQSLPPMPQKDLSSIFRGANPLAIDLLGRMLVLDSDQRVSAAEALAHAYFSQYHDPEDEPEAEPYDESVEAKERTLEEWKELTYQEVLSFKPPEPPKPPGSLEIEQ

As to `N=C(N)NCCC[C@@H](NC(=O)[C@@H](CCCNC(=N)N)NC(=O)[C@@H](CCCNC(=N)N)NC(=O)[C@@H](CCCNC(=N)N)NC(=O)[C@@H](CCCNC(=N)N)NC(=O)[C@@H](CCCNC(=N)N)NC(=O)CCCCCNC(=O)[C@H]1O[C@@H](n2cnc3c(N)ncnc32)[C@H](O)[C@@H]1O)C(N)=O` [Compound 5, AdcAhx(D-Arg)6-NH2], the remaining activity at 1 µM turned out to be 85% in the data set with SAPK2b/p38β2; 88% in the data set with CDK2/cyclin A; 70% in the data set with JNK/SAPK1c; 79% in the data set with SAPK2a/p38; 107% with SAPK4/p38d; 111% in the data set with SAPK3/p38g. The remaining activity at 1 µM was determined as 100% with MAPK2/ERK2, 82% with NEK2a and 92% in the data set with eEF2K.

For the molecule `N=C(N)NCCC[C@@H](NC(=O)[C@@H](CCCNC(=N)N)NC(=O)[C@@H](CCCNC(=N)N)NC(=O)[C@@H](CCCNC(=N)N)NC(=O)[C@@H](CCCNC(=N)N)NC(=O)[C@@H](CCCNC(=N)N)NC(=O)CCCCCNCCNS(=O)(=O)c1cccc2cnccc12)C(N)=O` [Compound 26, H9-Hex(D-Arg)6-NH2], the remaining activity at 1 µM is 80% with SAPK2b/p38β2; 73% with CDK2/cyclin A; 75% with JNK/SAPK1c; 76% with SAPK2a/p38; 93% with SAPK4/p38d; 99% in the data set with SAPK3/p38g. Moreover, the remaining activity at 1 µM in the data set with MAPK2/ERK2 was 95%; with NEK2a (inhibitor 1 μM, ATP 50 μM), 98%; with eEF2K (inhibitor 1 μM, ATP 5 μM), 91%.

The values are drawn from patent US8158376B2, “Bisubstrate fluorescent probe binding to protein kinases” (University of Tartu, priority 2006, dated 2012).
